Values quoted from earlier work, collected in article PMC8162889.

Molecular target: EphA2 ECD (Homo sapiens) (UniProt P29317)
Assay: MST

Sequence of UniProt P29317 (P29317 24-537): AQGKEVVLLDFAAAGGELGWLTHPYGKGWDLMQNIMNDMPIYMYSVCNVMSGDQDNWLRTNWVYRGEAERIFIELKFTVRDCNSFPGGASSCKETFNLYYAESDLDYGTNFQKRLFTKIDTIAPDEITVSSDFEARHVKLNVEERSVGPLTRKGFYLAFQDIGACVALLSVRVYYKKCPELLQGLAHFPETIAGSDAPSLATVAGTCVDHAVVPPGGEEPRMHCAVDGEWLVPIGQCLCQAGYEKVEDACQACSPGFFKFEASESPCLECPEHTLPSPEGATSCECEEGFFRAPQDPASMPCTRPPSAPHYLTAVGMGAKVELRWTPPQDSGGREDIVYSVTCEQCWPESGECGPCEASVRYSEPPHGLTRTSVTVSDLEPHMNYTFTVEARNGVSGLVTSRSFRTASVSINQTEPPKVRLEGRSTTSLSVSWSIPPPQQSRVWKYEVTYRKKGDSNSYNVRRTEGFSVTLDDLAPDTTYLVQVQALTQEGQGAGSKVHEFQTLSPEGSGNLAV

- Kd: 1.2 nM
Substance: Progranulin (from UniProt P28799)
